{"source": "paper PMC3017548", "assay_in_all_cases": "filter binding", "key": {"[1]": {"tested_on": "Gadd45a R34G (Xenopus tropicalis)", "conditions": "10 mM Tris-HCl pH 7.4, 10 mM KCl, 1 mM MgCl2; 2.5 or 1.3 uM protein, ~2 ng 32P-MCS RNA, 20 min; temperature not given; nitrocellulose filter"}, "[2]": {"tested_on": "Gadd45a G39A (Xenopus tropicalis)", "conditions": "loss of discrimination between vector and total RNA in competition; 10 mM Tris-HCl pH 7.4, 10 mM KCl, 1 mM MgCl2; 2.5 or 1.3 uM protein, ~2 ng 32P-MCS RNA, 20 min; temperature not given; nitrocellulose filter"}, "[3]": {"tested_on": "Gadd45a K45A (Xenopus tropicalis)", "conditions": "loss of discrimination between vector and total RNA in competition; 10 mM Tris-HCl pH 7.4, 10 mM KCl, 1 mM MgCl2; 2.5 or 1.3 uM protein, ~2 ng 32P-MCS RNA, 20 min; temperature not given; nitrocellulose filter"}, "[4]": {"tested_on": "Gadd45a V49R (Xenopus tropicalis)", "conditions": "10 mM Tris-HCl pH 7.4, 10 mM KCl, 1 mM MgCl2; 2.5 or 1.3 uM protein, ~2 ng 32P-MCS RNA, 20 min; temperature not given; nitrocellulose filter"}}}
{"substance": "MCS RNA (multiple cloning site transcript)", "values": [{"measurement": "binding signal (fold of wild type binding (comparable))", "setting": "[1]", "result": 1}, {"measurement": "binding signal (fold of wild type binding (comparable))", "setting": "[2]", "result": 1}, {"measurement": "binding signal (fold of wild type binding (comparable))", "setting": "[3]", "result": 1}, {"measurement": "binding signal (fold of wild type binding)", "setting": "[4]", "result": 3}]}
